Measurements published in patent US20140050743A1, “BINDING PROTEINS TO INHIBITORS OF COAGULATION FACTORS” (BAYER INTELLECTUAL PROPERTY GMBH, priority 2011, published 2014).

Key:
[1] = tested on: rivaroxaban (FXa activity); test: FXa de-inhibition assay (FXa DIA) of Fab variants; assay type: biochemical; design: key: ++: Variants with an average ratio above wt plus 2×SD were considered as improved; −−: variants with a ratio below wt minus 2×SD were considered as either reduced in their binding affinity or non-binding; +/−: All variants with a performance in between both thresholds; conditions: Table 11: single and double amino acid substitutions within M18-G08; FXa deinhibition assay; variant/wt ratio, 2-3 independent experiments
Experimental: Then, 7 μl of 28 nM FXa (Haematologic Technologies Inc., HCXA-0060) diluted in assay buffer (20 mM Tris, Merck 1.08382.2500; 100 mM NaCl, Merck 1.06404.5000; 2.5 mM CaCl2*2H2O, Merck 1.02382.1000; 0.1% bovine serum albumin, Sigma A4503; 0.1% PEG 8000, Sigma P2139) were added and enzyme activity was recorded over time by measuring the fluorescence signal at 440 nm using a micro plate reader e.g. Tecan Infinite F500. The fluorescence signal was integrated over time and ratios of variant to wild-type were compared.
Provided in Table 9 are several examples of single and/or double amino acid substitutions introduced into the heavy and/or the light chain of M14-G07 (wt). Performance of the variants was analyzed in quadruples in the ELISA without a competition step and the FXa deinhibition assay (FXa DIA). In the ELISA, averages were calculated and normalized to the respective average expression level. Overall performance of variants was evaluated by comparing the variant to wt ratio from 2-3 independent experiments. […] Variants with average fluorescence counts below the negative control (non-expressing cells) plus 3×SD were considered as non-binding and marked with “−−” with none of the variants fulfilling this criteria. In the FXa deinhibition assay averages were calculated and overall performance of variants was evaluated by comparing the variant to wt ratio from 2-3 independent experiments. […]

[2] = ELISA-based activity assay of antibody variants with a competition step (300 nM rivaroxaban); assay type: binding; design: key: ++: Variants with an average ratio above wt plus 2×SD (standard deviation of the ratio) were considered as improved; −: variants with a ratio below wt minus 2×SD were considered as reduced in their binding affinity; +/−: All variants with a performance in between both thresholds; −−: Variants with average fluorescence counts below the negative control (non-expressing cells) plus 3×SD were considered as non-binding; conditions: Table 11: single and double amino acid substitutions within M18-G08, variant to wt ratio, 1-3 independent experiments
Experimental: To determine the activity of the mutated antibody variants on compound from Example 1K an equilibrium or dissociation limited ELISA assay format was used. Briefly, MTP plates (Nunc Maxisorp black, 460518) were coated with 4 μg/ml streptavidin (Calbiochem, 189730) diluted in coating buffer (Candor Bioscience GmbH, 121500) and incubated over night at 4° C. After washing with PBST, plates were blocked with 100% Smart Block (Candor Bioscience GmbH, 113500) in PBST for 1 h at room temperature and the washing step was repeated. […] After washing 10 μM Amplex Red (Invitrogen, A12222) were added and incubated for 10 to 30 min at room temperature followed by measurement of the fluorescence signal.
Provided in table 11 are several examples of single and/or double amino acid substitutions introduced into the heavy and/or the light chain of M18-G08 (wt). Performance of the variants was analyzed in quadruples in the ELISA with a competition step and the FXa deinhibition assay (FXa DIA). In the ELISA, averages were calculated and overall performance of variants was evaluated by comparing the variant to wt ratio from 1-3 independent experiments. […] Variants with average fluorescence counts below the negative control (non-expressing cells) plus 3×SD were considered as non-binding and marked with “−−”. […] Variants not analyzed are marked with “nd” (not determined). […]

B1: HC_A32Y (antibody, V domains shown)
VH: EVQLLESGGGLVQPGGSLRLSCAASGFTFSNYWMSWVRQAPGKGLEWVSYISSSGSTIYYADSVKGRFTISRDNSKNTLYLQMNSLRAEDTAVYYCAREGLWAFDYWGQGTLVTVTS
VL: QSVLTQPPSASGTPGQRVTISCTGSSSNIGAGYVVHWYQQLPGTAPKLLIYDNNKRPSGVPDRFSGSKSGTSASLAISGLRSEDEADYYCAAWDDRLNGPVFGGGTKLTVLGQ
FXa-DIA [1]: ++ | ELISA [2]: ++
